Assay results from US20100048671.

Biological target: T7-tagged tyrosine kinase Etk (UniProt P51813)
Sequence (P51813 whole entry): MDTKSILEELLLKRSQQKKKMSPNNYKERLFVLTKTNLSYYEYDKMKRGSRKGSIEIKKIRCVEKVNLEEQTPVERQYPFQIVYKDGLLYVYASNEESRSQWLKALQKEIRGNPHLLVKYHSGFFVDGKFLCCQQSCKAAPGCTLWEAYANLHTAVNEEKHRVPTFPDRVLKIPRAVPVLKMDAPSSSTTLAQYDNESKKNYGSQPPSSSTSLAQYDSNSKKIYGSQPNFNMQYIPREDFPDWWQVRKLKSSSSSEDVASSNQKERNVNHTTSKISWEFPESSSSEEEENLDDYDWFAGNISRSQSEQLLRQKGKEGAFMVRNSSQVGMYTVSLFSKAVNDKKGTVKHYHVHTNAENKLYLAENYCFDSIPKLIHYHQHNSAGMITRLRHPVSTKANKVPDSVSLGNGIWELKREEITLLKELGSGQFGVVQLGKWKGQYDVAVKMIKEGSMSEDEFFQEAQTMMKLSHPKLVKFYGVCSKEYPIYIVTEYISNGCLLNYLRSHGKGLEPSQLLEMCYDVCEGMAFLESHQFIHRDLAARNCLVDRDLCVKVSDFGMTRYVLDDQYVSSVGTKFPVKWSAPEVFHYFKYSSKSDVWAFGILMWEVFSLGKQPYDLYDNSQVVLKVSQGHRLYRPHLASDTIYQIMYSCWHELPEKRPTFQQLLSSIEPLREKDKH

Flag-tagged human 44 kD Pim-1 (Pim-1L), sequence (chain, as listed by the source): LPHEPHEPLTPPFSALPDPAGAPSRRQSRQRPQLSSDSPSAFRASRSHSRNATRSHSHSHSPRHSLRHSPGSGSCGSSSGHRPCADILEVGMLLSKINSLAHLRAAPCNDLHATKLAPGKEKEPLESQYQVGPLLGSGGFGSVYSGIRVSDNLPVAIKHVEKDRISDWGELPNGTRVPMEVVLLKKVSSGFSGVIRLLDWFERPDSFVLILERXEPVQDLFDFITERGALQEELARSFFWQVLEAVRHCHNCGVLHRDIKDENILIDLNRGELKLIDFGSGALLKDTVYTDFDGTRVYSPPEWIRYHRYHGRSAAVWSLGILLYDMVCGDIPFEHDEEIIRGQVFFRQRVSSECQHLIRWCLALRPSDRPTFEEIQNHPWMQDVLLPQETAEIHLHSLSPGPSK
Flag-tagged Pim-1LΔP (Pim-1L with the first 15 amino acids deleted), sequence (chain, as listed by the source mutant): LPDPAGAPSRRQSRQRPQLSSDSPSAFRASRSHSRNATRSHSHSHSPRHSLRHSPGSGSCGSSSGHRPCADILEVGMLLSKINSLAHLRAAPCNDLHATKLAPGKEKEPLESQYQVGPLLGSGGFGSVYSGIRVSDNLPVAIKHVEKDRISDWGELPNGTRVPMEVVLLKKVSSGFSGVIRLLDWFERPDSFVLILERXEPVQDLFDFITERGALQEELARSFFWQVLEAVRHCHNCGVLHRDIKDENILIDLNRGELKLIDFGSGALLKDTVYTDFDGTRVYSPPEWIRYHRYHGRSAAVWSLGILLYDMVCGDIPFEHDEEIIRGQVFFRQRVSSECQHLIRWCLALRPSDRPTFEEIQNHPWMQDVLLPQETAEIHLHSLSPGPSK

## Flag-tagged human 44 kD Pim-1 (Pim-1L)
  in vitro kinase assay of Etk (tyrosine phosphorylation of the substrate Gab1): Co-expression of Etk with Pim-1L enhanced the kinase activity of Etk
  tyrosine phosphorylation of Etk (IP anti-Etk, blot anti-phosphotyrosine): unexpected robust increase of tyrosine phosphorylation of Etk

## Flag-tagged Pim-1LΔP (Pim-1L with the first 15 amino acids deleted)
  in vitro kinase assay of Etk (tyrosine phosphorylation of the substrate Gab1): Deletion of the proline-rich PXXP motifs of Pim-1L (Pim-1LΔP) dramatically diminished its effects on the Etk kinase activity
